Results from PMC7508885.

Tested on: N[C@@H](Cc1ccc(O)cc1)C(=O)O
Assay: ATP:PPi exchange reaction
Assay type: biochemical, Pseudomonas aeruginosa
Settings: other: other substrate (Tyr or ATP) held at 2 mM; enzyme 0.4 μM; pH 7.5; 37.0 °C

Row | Substance | Km | kcat
1 | P. aeruginosa TyrRS-S (Pseudomonas aeruginosa PAO1) | 172 µM | 3.8 s⁻¹
2 | P. aeruginosa TyrRS-Z (Pseudomonas aeruginosa PAO1) | 29 µM | 3.1 s⁻¹
